Consider 11 molecules from patent US20210147573A1 (DENALI THERAPEUTICS, published 2021).

The target in data set [1] is HA-Rab10 (N-terminal HA-tagged Rab10 overexpressed in HEK293T cells; not phosphorylated / LRRK2 inhibitor A-treated lysate) (UniProt P61026).
The target in data set [2] is mouse Rab10 (endogenous, brain and kidney) (mouse) (UniProt P61027). The data set can be described thus: cell-based or functional assay.
For data set [3], the target named is mouse Rab10 (endogenous, brain and kidney) (UniProt P61027).
Data set [4] concerns the target T1, HA-Rab8a phosphorylated at T72 (overexpressed with LRRK2 in HEK293T cells, DMSO-treated lysate) (UniProt P61006 1-204, phosphothreonine at Thr72 (numbered with reference to SEQ ID NO:124)).
T1 construct: mature; In cell lysate of HEK293T co-transfected with FLAG-LRRK2 or FLAG-LRRK2-R1441C; also called pT72-Rab8a; phospho-Rab8a; not shown: N-terminal HA (hemagglutinin) tag
T1 sequence (looked up): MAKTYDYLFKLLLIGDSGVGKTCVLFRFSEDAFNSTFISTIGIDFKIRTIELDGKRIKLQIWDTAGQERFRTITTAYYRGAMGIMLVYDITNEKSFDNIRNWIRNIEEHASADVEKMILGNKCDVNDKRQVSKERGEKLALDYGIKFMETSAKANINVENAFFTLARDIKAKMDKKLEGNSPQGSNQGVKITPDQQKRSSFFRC

The target in data set [5] is T1, HA-Rab8a phosphorylated at T72 …. In words: sandwich ELISA screening assay; OD ratio of DMSO lysate to LRRK2 inhibitor A lysate. The method, then: (§1) 96-well ELISA plates were coated with 10 μg/ml anti-rabbit IgG (Millipore) overnight at 4° C. Plates were washed with TBST (Tris Buffered Saline with Tween 20), and blocked with 2% BSA. Hybridoma supernatants were added in different dilutions, and incubated at room temperature for 2 hours. After TBST wash, cell lysates were then added at different protein concentration (0.08 mg/ml or 0.8 mg/ml). […] HRP conjugated anti-HA antibody (1:5000, CST #2999) was used for detection. TMB substrate was added and developed. Absorbance (OD) was measured at 650 nm using a plate reader.

For data set [6], the target named is T2, HA-Rab8a (N-terminal HA-tagged full-length Rab8a overexpressed in HEK293T cells); not phosphorylated / LRRK2 … (UniProt P61006 1-204).
T2 construct: mature; also called overexpressed Rab8a protein; not shown: N-terminal HA (hemagglutinin) tag
T2 sequence (looked up): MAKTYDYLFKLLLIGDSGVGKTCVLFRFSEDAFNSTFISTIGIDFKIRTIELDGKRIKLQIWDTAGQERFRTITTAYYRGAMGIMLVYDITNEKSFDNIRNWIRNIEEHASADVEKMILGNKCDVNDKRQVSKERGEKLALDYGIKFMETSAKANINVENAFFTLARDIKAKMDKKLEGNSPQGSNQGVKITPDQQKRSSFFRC
The method, then: as §1

Data set [7] concerns the target endogenous phosphorylated human Rab8a protein (pT72-Rab8a) (human) (UniProt P61006). The data set can be described thus: western blot, human PBMC; band intensity normalized to actin; mean ± SEM.
The target of data set [8] is T3, recombinant Rab10 protein (Abnova, H00010890-P01) (UniProt P61026 1-200).
T3 construct: Bought
T3 sequence (looked up): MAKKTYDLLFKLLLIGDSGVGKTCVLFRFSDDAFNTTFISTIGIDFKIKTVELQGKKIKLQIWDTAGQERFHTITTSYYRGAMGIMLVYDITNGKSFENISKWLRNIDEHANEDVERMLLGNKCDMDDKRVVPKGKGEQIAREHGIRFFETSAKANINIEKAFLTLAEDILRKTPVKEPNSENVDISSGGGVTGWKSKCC
In words: sandwich ELISA with recombinant Rab proteins; same screening and selection strategy used for subclone supernatants.

For data set [9], the target named is T4, endogenously expressed human Rab10 protein (total Rab10, A549 cell lysates) (human, UniProt P61026 1-200).
T4 construct: A549 is stated to be a human lung epithelial cell line
T4 sequence: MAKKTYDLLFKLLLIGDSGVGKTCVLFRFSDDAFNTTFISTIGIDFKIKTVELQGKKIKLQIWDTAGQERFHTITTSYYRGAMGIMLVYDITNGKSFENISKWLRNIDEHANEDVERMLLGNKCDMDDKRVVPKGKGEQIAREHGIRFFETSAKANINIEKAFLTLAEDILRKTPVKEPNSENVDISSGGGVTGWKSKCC
The data set can be described thus: sandwich ELISA with lysates of wild-type A549 cells, Rab10 KO A549 lysates as negative controls. On the technique in general: ELISA stands for enzyme-linked immunosorbent assay.

For data set [10], the target named is T5, HA-Rab10 (N-terminal HA-tagged Rab10 overexpressed in HEK293T cells); not phosphorylated / LRRK2 inhibitor … (UniProt P61026 1-200).
T5 construct: mature; also called overexpressed Rab10 protein; not shown: N-terminal HA (hemagglutinin) tag
T5 sequence (looked up): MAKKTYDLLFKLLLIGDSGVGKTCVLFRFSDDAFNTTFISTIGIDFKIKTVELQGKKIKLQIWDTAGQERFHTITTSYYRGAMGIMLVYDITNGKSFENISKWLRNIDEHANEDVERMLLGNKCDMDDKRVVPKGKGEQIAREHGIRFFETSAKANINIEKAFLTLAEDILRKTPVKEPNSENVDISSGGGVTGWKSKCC
The data set can be described thus: sandwich ELISA with cell lysates; same screening and selection strategy used for subclone supernatants.

Take LRRK2 variant G2385R: the “phosphorylation of Rab10 (pT73-Rab10 western blot signal normalized to total Rab10, against wild-type LRRK2)” value in data set [1] is reported as “demonstrated significantly increased phosphorylation levels of Rab10”.
In turn, “G2019S-LRRK2 (BAC transgene in G2019S-Tg mice, Jackson Laboratories #018785)” gave an increase in pT73-Rab10 level in brain and kidney of G2019S transgenic mice (western blot, normalized to actin) in data set [2] of 20 to 30%.
LRRK2 variant R1441G: the “phosphorylation of Rab10 (pT73-Rab10 western blot signal normalized to total Rab10, against wild-type LRRK2)” value in data set [1] was “demonstrated significantly increased phosphorylation levels of Rab10”.
The same measure, in the same setting: with “LRRK2 variant G2019S (HEK293T expression)” the entry was “demonstrated significantly increased phosphorylation levels of Rab10”.
With “mouse LRRK2 (endogenous; absent in LRRK2 knockout mice, Jackson Lab #016121)”, in data set [3], the “reduction of pRab10 level in LRRK2 KO mouse kidney (western blot, normalized to actin)” value is reported as “more than 90% reduction of pRab10 level” and the “reduction of pT73-Rab10 level in LRRK2 KO mouse brain (western blot, normalized to actin)” value was 30-40% reduction for pT73-Rab10 level.
With LRRK2 variant I2020T, in [1], the “phosphorylation of Rab10 (pT73-Rab10 western blot signal normalized to total Rab10, against wild-type LRRK2)” value is on record as “demonstrated significantly increased phosphorylation levels of Rab10”.
Turning to LRRK2 variant Y1699C, in data set [1], the “phosphorylation of Rab10 (pT73-Rab10 western blot signal normalized to total Rab10, against wild-type LRRK2)” value is “demonstrated significantly increased phosphorylation levels of Rab10”.

B1: anti-pT72-Rab8a monoclonal antibody clone 20 (antibody, V domains shown)
VH: QSVEESGGRLVTPGTPLTLTCTVSGFSLSSYAMGWVRQAPGEGLEYFGIINTGGSAYYTNWAKGRFTISRTSTTVHLKITSPTTEDTATYFCARIAGDTRYYGMDPWGPGTLVTVSS
VL: AAVLTQTPSPVSAAVGGTVSISCQSSKSVRNNNYLAWYQQKPGQPPKLLIYGASTLASGVPSRFKGSGSGTQFTLTISDVQCDDAATYYCAGGYDGGSDDAFGGGTEVVVK
notes: Rabbit monoclonal; also called anti-phospho Rab8a clone 20; anti-phosphorylated T72-Rab8a monoclonal antibody (clone 20)
B1 showed an OD A650 (DMSO) in data set [4] of 0.827 OD A650. Also, the Ratio (DMSO/LRRK2 inhibitor A) in data set [5] was 8.35. Also, the “OD A650 (LRRK2 inhibitor A)” value in data set [6] was 0.099 OD A650. The Ratio of DMSO/LRRK2 inhibitor A in [7] is 3.5.

B2: anti-pT72-Rab8a monoclonal antibody clone 170-1 (antibody, V domains shown)
VH: QSLEESGGDLVKPEGSPTLTCTASGFSFSSSYWICWVRQAPGKGLEWIACIYGGSSGTIYYASWAKGRFTISKTSSTTVTLQMTSLTAADTATYFCARRAAGGYGGRLDLWGQGTLVTVSS
VL: AQVMTQTPASVSAAVGGTVTINCQSSESVLNNNYLAWYQQKSGQPPKLLIWTASSLASGVPSRFSGSGSGTQFTLTISDVQCDDAATYYCAGGYYIGSDIFAFGGGTEVVVR
notes: Rabbit monoclonal; also called anti-phospho Rab8a clone 170-1
Take B2: the “Ratio (DMSO/LRRK2 inhibitor A)” value in data set [5] was 6.03. In addition, in data set [6], the “OD A650 (LRRK2 inhibitor A)” value amounted to 0.173 OD A650.

B3: anti-pT72-Rab8a monoclonal antibody clone 24-3 (antibody, V domains shown)
VH: QSVEESGGRLVTPGTPLTLTCTVSGFSLSSYYITWVRQAPGKGREWLGIMNAGTTVHYANWVKGRFAISKTSTTVDLKITSPTTEDTATYFCARARNSVWMDIWGPGTLVTVSL
VL: AAVLTQTPSPVSGAVGGSVTVNCQSDKSVYRDNLAWYQQKPGQPPKLLIYKASTLASGVPSRFRGSGAGTQFTLTISDVQCDDAATYFCAGGYSSDSDTAFGGGTEVVVK
notes: Rabbit monoclonal; also called anti-phospho Rab8a clone 24-3
Regarding B3, in data set [5], the “Ratio (DMSO/LRRK2 inhibitor A)” value was 5.19. The “OD A650 (LRRK2 inhibitor A)” value in data set [6] amounted to 0.286 OD A650.

B4: anti-total Rab10 monoclonal antibody Clone 10-3 (antibody, V domains shown)
VH: QSVEESGGRLVTPGTPLTLTCTASGFSLSSYYMNWVRQAPGKGLEWIGFISSGGRTYYANWAKGRFTISKTSTTVDLKITSPTTEDMATYFCARAIYSSGNSAMAIWGPGTLVTVSL
VL: AQVLTQTPSSVSAAVGGTVTISCQASQSVYDNSNLAWYQQKPGQPPELLIYYTSTLASGVPSRFSGSGSGTQFTLTISGVQCDDAAIYYCLGAFTCSSGDCNVFGGGTEVVVK
notes: Rabbit monoclonal from rabbit E8473 (Peptide A immunization); hybridoma supernatant; also called anti-total Rab10 clone 10-3
As to B4, the binding result in data set [8], in data set [9] and in data set [10] was “binds” throughout.
